Experimental data: publication doi:10.1101/2024.09.19.613683 (bioRxiv, 2024)

B1: tail sheath protein of phage 812 (natural protein, Staphylococcus phage 812)
chain: MAVEPFPRRPITRPHASIEVDTSGIGGSAGSSEKVFCLIGQAEGGEPNTVYELRNYSQAKRLFRSGELLDAIELAWGSNPNYTAGRILAMRIEDAKPASAEIGGLKITSKIYGNVANNIQVGLEKNTLSDSLRLRVIFQDDRFNEVYDNIGNIFTIKYKGEEANATFSVEHDEETQKASRLVLKVGDQEVKSYDLTGGAYDYTNAIITDINQLPDFEAKLSPFGDKNLESSKLDKIENANIKDKAVYVKAVFGDLEKQTAYNGIVSFEQLNAEGEVPSNVEVEAGEESATVTATSPIKTIEPFELTKLKGGTNGEPPATWADKLDKFAHEGGYYIVPLSSKQSVHAEVASFVKERSDAGEPMRAIVGGGFNESKEQLFGRQASLSNPRVSLVANSGTFVMDDGRKNHVPAYMVAVALGGLASGLEIGESITFKPLRVSSLDQIYESIDLDELNENGIISIEFVRNRTNTFFRIVDDVTTFNDKSDPVKAEMAVGEANDFLVSELKVQLEDQFIGTRTINTSASIIKDFIQSYLGRKKRDNEIQDFPAEDVQVIVEGNEARISMTVYPIRSFKKISVSLVYKQQTLQA

Experiments:
[1] = target: B1; test: cryo-EM structure
cryo-EM structure = target: the molecule itself; test: cryo-EM structure

Binder	binding result [1]	binding result (cryo-EM structure)
tail tube protein of phage 812 (natural protein, Staphylococcus phage 812) MASEAKQTVHTGNTVLLMIKGKPVGRAQSASGQREYGTTGVYEIGSIMPQEHVYLRYEGTITVERLRMKKENFADLGYASLGEEILKKDIIDILVVDNLTKQVIISYHGCSANNYNETWQTNEIVTEEIEFSYLTASDKART	binds	–
B1	–	binds
